Reference: patent publication US20090233993A1, “COMPOSITIONS AND METHODS FOR INHIBITING GSK3 ACTIVITY AND USES THEREOF” (Burnham Institute for Medical Research, priority 2008, published 2009)

Test system: FG01 transgenic mouse brain
Assay: brain-specific FG01 transgenic mice, brain analysis
Format: in vivo
Source text: Brain-specific FG01 transgenic mice were generated using a FG01 expression cassette. FG01 has an N-terminal Myc tag and is driven by the human Thy-1 promoter for neuron-specific expression. A SV40 polyA fragment is linked at the 3′ end for enhancing expression. Genotyping P5 primer was complementary to hThy1 sequence. Genotyping P3 primer was complementary to SV40/Poly A sequence. Reverse transcription primer RT-P5 was complementary to sequence on the 5′ side of the FG01 sequence. Hemizygous FG01 transgenic mice were crossed with homozygous triple transgenic (3×Tg) AD mice harboring mutations in human APP and tau genes on a presenilin 1 (PS1) mutant background (Oddo et al., 2003). Procedures involving animals and their care conformed to institutional guidelines (Animal Resources Department at Burnham Institute for Medical Research).
N-terminally Myc-tagged FG01 cDNA was cloned into pHZ04 construct between the human Thy-1 promoter and the SV40 polyA regions. Purified, linearized minigenes containing these sequences were microinjected into prenuclear embryos from superovulated C57B16 females. Two primers (Genotyping-P5: 5′-[…]-3′; SEQ ID NO:25), and Genotyping-P3: 5′-[…]-3′; SEQ ID NO:26) located within the human Thy-1 promoter and the SV40 regions, respectively, were used for genotyping. Brain tissues from confirmed transgenic mice and littermate controls were used for RNA extraction, reverse transcription and PCR with RT-P5 primer (5′-AGAATTTGGCTGTTTGG-3′; SEQ ID NO:27) located within the FG01 cDNA region paired with the Genotyping-P3 primer to verify Myc-FG01 expression. Alternatively, brain lysates were immunoprecipitated and analyzed by Western blot with the Myc antibody to verify Myc-FG01 expression. Procedures involving animals and their care conformed to institutional guidelines (Animal Resources Department at Burnham Institute for Medical Research).
To validate FG01 function in vivo, an FG01 transgenic mouse model specifically overexpressing Myc-tagged FG01 in the brain was generated. A transgenic expression cassette driven by the human Thy-1 promoter was microinjected into C57B16 mice and primers specifically amplifying exogenous Myc-FG01 were used to genotype transgenic mice. Genomic DNA extracted from mouse tail samples was genotyped by PCR using Genotyping-P5 and Genotyping-P3 primers located in the human Thy1 and SV40 polyA regions, respectively. […] Total RNA was extracted from the brain of an FG01 transgenic mouse (1) and of a littermate control (0), followed by RT-PCR with the RT-P5 primer located within the FG01-coding region and the Genotyping-P3 primer for detecting Myc-FG01 mRNA. Immunoprecipitation/Western blot confirmed that exogenous Myc-tagged FG01 protein was expressed in brain tissues of transgenic mice. Brain samples from FG01 transgenic (Tg) mice and littermate controls (Non-Tg) were analyzed for levels of phosphorylated/total CREB, phosphorylated/total GSK-3, and various tau forms by direct Western blot. Myc-FG01 was detected by immunoprecipitation-Western blot using the Myc antibody. Two mouse lines with similar exogenous FG01 expression levels were generated and the results obtained from the two lines (including their crossing with 3×Tg mice as described below) were similar. […] Brain lysates from FG01-Tg and Non-Tg mice were analyzed for GSK-3β activity. Results were normalized to those of Non-Tg samples.

B1: FG01: 141 amino acid transmembrane protein encoded by mouse retrogene fg01 (SEQ ID NO:2); expressed from transfected vector or transgene (protein)
chain: MQSQQRNIGYFNHLKADSRNITYSMTFSTKSSNQNFIIFLNEVQAAIIGHERCDLLPVLNELHPDALPDGRIWLFGLNPYFFQHNSLCMRGTPKRIGLQGCAQVGFLVLFVMPLLIPSVTAELPGSSETTTLAHLAGATGP
modifications: Myc and His6 tags; homo sapien
notes: expressed from transfected vector or transgene
For B1, the “levels of phosphorylated (inactive) GSK-3α/β in brain” value (FG01 transgenic vs littermate non-Tg mice) was “increased”, the “CREB phosphorylation in brain” value (FG01 transgenic vs non-Tg mice) was “Increased” and the “phosphorylation of endogenous mouse brain tau” value (FG01 transgenic vs non-Tg mice) was “decreased”. For the same molecule, the “GSK-3β activity in brain” value (FG01 transgenic vs non-Tg mice, brain lysates) was “reduced” and the behavioral phenotypes (observation of FG01 transgenic mice) was “no obvious aberrant behavioral phenotypes”.
